Reference: patent US7645449B2, “Sensitizing cells for apoptosis by selectively blocking cytokines” (priority 2003, dated 2010)

Legend:
Type in all cases: cell-based, human
[1] = tested on: RT112 bladder carcinoma cells; test: MTS viability of RT112 cells: chemotherapy- and anti-CD95-induced apoptosis
Text: Anticancer treatment using cytotoxic drugs mediates cell death by activating the intracellular apoptotic program. To determine whether IL-4 was able to inhibit apoptosis induced by chemotherapeutic drugs, bladder tumor cells (RT112) were pretreated for two days with different concentrations of IL-4 and subsequently exposed to camptothecin or etoposide.
Human LNCAP prostate cancer cell line and human MDA-MB-231 breast cancer cell line were obtained from the American Type Culture Collection (ATCC, Manassas, Va.). Human RT112 bladder carcinoma cell line was kindly provided by Dr. M. Cippitelli (Regina Elena Cancer Institute, Rome, Italy). Cells were grown in RPMI 1640 (Life Technologies Inc., Grand Island, N.Y.) containing 10% heat inactivated fetal bovine serum supplemented with L-Glutamine 2 mM and 100 units/ml Penicillin-Streptomycin. Cells were kept in 5% CO2 atmosphere and routinely passaged when 80-85% confluent. […] Camptothecin, cisplatin, daunorubicine, etoposide and vincristine were purchased from Sigma-Aldrich Inc. (Sain Louis, Mo.) and resuspended in DMSO (cisplatin, camptothecin and etoposide) or in H2O (daunorubicine and vincristine). Anti-CD95 agonistic antibody (clone CH11) was purchased from Upstate Biotechnology (Lake Placid, N.Y.). Monoclonal antibody anti-Bcl-XL (H5, mouse) was from Santa Cruz (Santa Cruz, Calif.), antibody anti-cFlip/FLAME-1 (NF6, mouse) was kindly provided by Dr. P.H. Krammer (German Cancer Reseach Center, Heidelberg, Germany). Antibody anti β-actin (goat) was purchased from Oncogene (Boston, Mass.):
Cell viability was determined using the CellTiter 96® AQueous One Solution Cell Proliferation Assay (Promega, Madison, Wis.), according to the manufacturer's instructions. The assay is based on reduction of 3-(4,5-dimethylthiazol-2-yl)-5-(3-carboxymethoxyphenyl)-2-(4-sulfophenyl)-2H-tetrazolium, inner salt (MTS) to a colored formazan product that is measured spectrophotometrically. Cells were seeded in 96-well tissue culture plates and incubated at 37° C. in a 5% CO2 incubator overnight. […] After two days cells were treated for 10 hours with chemotherapeutic drugs or anti-CD95, then 20 μl of MTS were added to each well. After 3 hours of incubation at 37° C. with the MTS reagent, the plates were read on a Multilabel Counter (Victor2, Wallac, Perkin-Ehmer Inc., Norwalk, Conn.) and dye absorbance was measured at 490 nm.
The percentage of apoptotic cells was derived from the percentage of viable cells that was directly calculated from the values of the MTS assay. The percentage of protection from apoptosis was determined as: % protection=100%−X
X was calculated with the formule: (C1−C2):100=(S1−S2):X where:
C1 is the viability of untreated control cells, C2 is the viability of control cells treated with the apoptotic stimulus, S1 and S2 are the viability of cells preincubated with cytoldnes or transduced with anti-apoptotic genes, untreated (S1) or treated (S2) with the apoptotic stimuli.
(A) Percentage of viable RT112 bladder carcinoma cells pre-treated for two days with increasing doses of IL-4 (5, 10, 20, 50 and 100 ng/ml) which were maintained also during incubation with chemotherapeutic drugs and exposed to 50 ng/ml camptothecin of 7 μM etoposide. […] Cell viability was determined after 24 hours using the MTS assay as described in Materials and Methods and the percentage of protection from cell death was calculated as described in Materials and Methods. The results shown are the mean ±s.d. of four independent experiments.
When the cytokine is removed by washing the percentage of protection is downmodulated.
(E) IL-4 prevents anti CD95-induced apoptosis. […] Successively, cells were incubated with 30 ng/ml anti-CD95 agonistic antibody in standard medium, Control cells (−) were stimulated with anti-CD95 in the absence of cytokine pre-treatment. The results shown are the mean ±s.d. of four independent experiments.

[2] = tested on: MDA-MB-231 breast cancer cells; test: MTS viability of MDA-MB-231 cells: chemotherapy- and anti-CD95-induced apoptosis
Protocol: Human LNCAP prostate cancer cell line and human MDA-MB-231 breast cancer cell line were obtained from the American Type Culture Collection (ATCC, Manassas, Va.). Human RT112 bladder carcinoma cell line was kindly provided by Dr. M. Cippitelli (Regina Elena Cancer Institute, Rome, Italy). Cells were grown in RPMI 1640 (Life Technologies Inc., Grand Island, N.Y.) containing 10% heat inactivated fetal bovine serum supplemented with L-Glutamine 2 mM and 100 units/ml Penicillin-Streptomycin. Cells were kept in 5% CO2 atmosphere and routinely passaged when 80-85% confluent. […]
Cell viability was determined using the CellTiter 96® AQueous One Solution Cell Proliferation Assay (Promega, Madison, Wis.), according to the manufacturer's instructions. The assay is based on reduction of 3-(4,5-dimethylthiazol-2-yl)-5-(3-carboxymethoxyphenyl)-2-(4-sulfophenyl)-2H-tetrazolium, inner salt (MTS) to a colored formazan product that is measured spectrophotometrically. […] After 3 hours of incubation at 37° C. with the MTS reagent, the plates were read on a Multilabel Counter (Victor2, Wallac, Perkin-Ehmer Inc., Norwalk, Conn.) and dye absorbance was measured at 490 nm.
The percentage of apoptotic cells was derived from the percentage of viable cells that was directly calculated from the values of the MTS assay.

[3] = tested on: normal thyrocytes; test: Cytokine protection of normal thyrocytes from chemotherapy-induced apoptosis; settings: 48 h pre-treatment, rhIL-4 20 ng/ml or rhIL-10 40 ng/ml, then drugs for 12 h
Protocol: Thyroid cell purification and culture. Thyroid tissues from normal, PTC, FTC and UTC were digested for 2 hours with collagenase (1.5 mg/ml) (Gibco BRL, Grand Island, N.Y.) and hyaluronidase (20 μg/ml) (Sigma Chemical Co., St. Louis, Mo.) in DMEM. Thyrocytes were purified from the digested tissues by hematopoietic cell depletion with anti-CD45-coupled beads (Dynal, Wirral Merseyside, U.K.) and 12 hours of flask adherence, which allowed removal of other cells. After additional 12 hours of culture, thyroid cells were allowed to grow in monolayer for the immunocytochemistry or detached with trypsin+EDTA following exposure to cytokines or chemotherapeutic agents for functional and protein analyses. […]
Cell death quantitation. Apoptotic events of neoplastic thyrocytes were evaluated by DNA staining and flow cytometry analysis. […] The percentage of hypodiploid nuclei was evaluated as previously described. […] The number of viable cells was detected by CellTiter Aqueous Assay Kit (Promega Corporation, WI, USA) adding 20 μl of solution reagent directly to culture wells, incubating for 1 hours at 37° C. and recording absorbance at 490 nm. […]

B1: IL-4: human recombinant IL-4 (protein, UniProt P05112 25-153, looked up)
Interleukin-4: HKCDITLQEIIKTLNSLTEQKTLCTELTVTDIFAASKNTTEKETFCRAATVLRQFYSHHEKDTRCLGATAQQFHRHKQLIRFLKRLDRNLWGLAGLNSCPVKEANQSTLENFLERLKTIMREKYSKCSS
protection from chemotherapy-induced apoptosis at 20 ng/ml ([1]; 20 ng/ml IL-4 for two days, camptothecin or etoposide, viability after 24 hours): able to protect cells from chemotherapy-induced apoptosis
time course of protection from etoposide-induced cell death ([1]; 7 μM etoposide, IL-4 maintained in the culture medium): protected from etoposide-induced cell death from day 2 to day 4
protective effect after shorter pretreatment ([1]; 24 hours of IL-4 pretreatment): already consistent
protection from chemotherapy-induced apoptosis at higher concentrations ([1]; IL-4 higher than 20 ng/ml (50, 100 ng/ml)): protective effect is maintained
protection of RT112 cells from drug-induced death ([1]; pretreated two days with IL-4, then camptothecin or etoposide): significantly protected from drug-induced death
CD95-induced apoptosis in bladder cancer cells ([1]; two days IL-4 pretreatment, 30 ng/ml anti-CD95 agonistic antibody): significantly inhibit CD95-induced apoptosis
anti-CD95-induced apoptosis of MDA-MB-231 cells ([2]; cytokine pretreatment, 30 ng/ml anti-CD95 agonistic antibody): greatly reduced anti-CD95-induced apoptosis
drug-induced death of MDA-MB-231 cells ([2]; two days cytokine pretreatment (20 ng/ml), 300 ng/ml cisplatin or 5 μM daunorubicin): significantly protected from drug-induced death
prevention of death of normal thyrocytes exposed to cisplatinum, doxorubicin and taxol [3]: drastically prevented death
